The record followed here is the DeepSol protein solubility set.

This series is described as follows: soluble on expression in E. coli; label from the status in PepcDB or PDB records.
Take “MAHHHHHHMEFLVADAERMYTVNGRLQHLSYWSYKILARSFLESYQNPPLLNSNRAAQNFSKGSGYVDFCTWHRYSEFEWLAAQVELEFPGMLFPPIPSKETDGTVDKFTELLTSVKENNSTTRENPLVKKRMRHLQLTFNAIAQLHELHESPLLKAFVTLDELSWCAFREEREKKMKTSILTIFKAKGLSIIAKLRSFRESSNHDYTLDSPLDSVATRQSDLGELLNTCFAQVEYINKYCISEWRHWSDVNKLRGSIQGSPMPWTACYGGHHVQHSKHPGLEGVVREINNDAAVVEWNGQGGKLSKVPLDELNYPSSGISDPAIFALQELASQVESYFMYLSRSSGVAVLRDVEDLLWFLSSYANRCVRVIRRFREMRSEVRYLTRVVEKKASVEQFEQLERLKQILSKGTSRFMEQYNNFYRCFMRNSLMEVAHKFGRVITVIMSDDQWNERLSVAKTMLTLSLPLLPEEREEIFAEDASKRDSPPMKQVNGLEG”: the “soluble on expression in E. coli” value is “soluble”.

For “MSLKYIVVTGGVMSGLGKGITAASIGRLFVDMGYRVIPIKIDPYINIDAGTMNPFQHGEVYVLKDGTEVDLDLGHYERFIGEEVTGDHNITTGKIYKRVIEKERKGDYLGQTVQIIPHVTDEIKSWIRRVAKESNAEICLVEIGGTVGDIEGMPFLEAIRQMHNEEKEEDFALVHVTLVPLDAGGEQKTKPTQHSVKELRELGLHPDVIVGRCSERLKPATKKKIALFCDVPEEAVISNEDAEDIYEVPLIFKREKLDEYLMRKLNLRAKESRKEWEEMVKRMKTLYEEASIAIVGKYVDVRDAYLSIKEALKHGGIEAGCKVNIVWVDSEDLENVDDFTLDVDGILVPGGFGARGAEGKIRAIEYARENGVPFLGICFGFQLAVIEFARNVVGFSEANSTELDENTPHPVIDLLPEQKGIDEMGGTMRLGDIEVTIKPGTIAHKLYGSEKVVERHRHRYEVNPEYIEKIESKGLVFSAYSDGGRRMEIAELPDHPFFFATQFHPEFKSRPYRPSPPFVGFVRAALKYRREEEIEGHHHHHH”, the “soluble on expression in E. coli” value was “soluble”.

For “MSNPYPKQEVTLMLHTANPVIKHKAGLLNLAEELSNVSKACKIMGVSRDTFYRYRELVAEGGVDAQINRSRRAPNLKNRTDEATEQAVVDYAVAFPTHGQHRASNELRKQGVFISDSGVRSVWLLHNLENLKRRYLEHHHHHH”, the “soluble on expression in E. coli” value is reported as “not soluble”.

For “MGSDKIHHHHHHMVAYGELIREVRLSKGLTQKEVYTGVISKSYAIGFEKGKHDITLVLFEEILERVMLSSDEFFFMNRGYSLAEEDNFWYKFANAANQKSLADLQELYQEVLQQTGDRANLRKAIVHSRMEINEQFLLNNRFDVSIVSEKDKAVIQTYLWKVQSWTLEEIRIFANSVDYFEEDVQIYFFQLVLKSLEKYKHYDRGKKVFSTLLSNIIEELITRNQLEYAAQLLEILHELSSTHDCAFYRIMHNYYQGLIWMKNDQVEQGLKESKSAIRILDVLDYKSLAQLYNTLLQQFLEKENIQIV”, the “soluble on expression in E. coli” value is listed as “not soluble”.

For the sequence “MTKWKRANPNGTRDYLFEECTLIEEVEQKLRLTFLERGYEEIRTPTIEFYDVFAFQNRPIDEEKMYKFFDEKGRIIVLRPDMTIPLARVIGTQRWDTPLKVTYSGNVFRANESHSGKYNEIVQSGIEVIGIDNVRAEIECVISVIQALQKLKVQSFTIEIGQVQLYKCIVKKLSIQDEEERVLRTYIESKNYAALSNFIGEKKLDRCDETVRLLEKLPRLFGNLEVIEEAEKLASSNEMKMAIARVKEMYETIEMLGYGSYISIDLGMIQHLDYYTGVIFKGYIYEIGEEIVSGGRYDELIGNFGEMLPAVGLAVQVNQIVKALQEQQEPYERNQIDIVIHYELNRLAEAERLRNLLRKDGKNAWLSLFSNLSDTFQFARKNKIGTVVEAQNEYLVEYVWNEKWVVQKEGEASCVTFKLR”, the “soluble on expression in E. coli” value is recorded as “not soluble”.

For “MSLRTSASLAGSLAYGMADFLGRSEHLSIIDMIVPRMRQDNVETVVGMFDGQPSSTGGSRVAKFLHENFLHTFSAELKRLRRDEQETPLDAFRRTFLTLNRNMAFACYKSIDQDVRLFQEDSSDQKKVRLNKEDLQSGGVATVLYLNNTDLYAANIGDAQAILVKSDGSMRYLTRNHDPAEAGERARIRAAGGFVSRNGRLNDYLPVSRSFGYFNLMPAVIAAPHTMHVSLTEQDEMIILASKELWDYVTPDLVVDVTRAERRDLMVAAQKIRDLALSFGANNKLMVMILGVGDLREGHHHHHH”, the “soluble on expression in E. coli” value is recorded as “soluble”.

Consider “MIPVILSGGSGSRLWPLSRKQYPKQFLALTGDDTLFQQTIKRLAFDGMQAPLLVCNKEHRFIVQEQLEAQNLASQAILLEPFGRNTAPAVAIAAMKLVAEGRDELLLILPADHVIEDQRAFQQALALATNAAEKGEMVLFGIPASRPETGYGYIRASADAQLPEGVSRVQSFVEKPDEARAREFVAAGGYYWNSGMFLFRASRYLEELKKHDADIYDTCLLALERSQHDGDLVNIDAATFECCPDNSIDYAVMEKTSRACVVPLSAGWNDVGSWSSIWDVHAKDANGNVTKGDVLVHDSHNCLVHGNGKLVSVIGLEDIVVVETKDAMMIAHKDRVQDVKHVVKDLDAQGRSETQNHCEVYRPWGSYDSVDMGGRFQVKHITVKPGARLSLQMHHHRAEHWIVVSGTAQVTCDDKTFLLTENQSTYIPIASVHRLANPGKIPLEIIEVQSGSYLGEDDIERLEDVYGRTAEPALQVVAGSR”, for which the “soluble on expression in E. coli” value was “not soluble”.

In the case of “RSFAKDLEAKQKMSLTSWFLVSSGGTRHRLPREMIFVGRDDCELMLQSRSVDKQHAVINYDASTDEHLVKDLGSLNGTFVNDVRIPEQTYITLKLEDKLRFGYDTNLFTVVQGEMRVPEEALKHEKFTIQLQLSQKSSESELSKSASAKSIDSKVADAATEVQHKTTEALKSEEKAMDISAMPRGTPLYGQPSWWGDDEVDEKRAFKTNGKPEEKNHEAGTSGCSIDAKQVEEQSAAANEEVLFPFCREPSYFEIPTKEFQQPSQITESTIHEIPTKDTPSSHITGAGHASFTIEFDDSTPGKVTIRDHVTKFTSDQRHKSKKSSPGTQDLLGIQTGMMAPENKVADWLAQNNPPQMLWERTEEDSKSIKSDVPVYLKRLKGNKHDDGTQSDSENAGAHRRCSKRATLEEHLRRHHSEHKKLQKVQATEKHQDQAVVFGVDDNQDYNRPVINEKHKDLIKDWALSSAAAVMEERKPLTTSGFHHSEEGTSSSGSKRWVSQWASLAANHTRHDQEERIMEFSAPLPLENETEISESGMTVRSTGSATSLASQGERRRRTLPQLPNEEKSLESHRAKVVTQRSEIGEKQDTELQEKETPTQVYQKDKQDADRPLSKMNRAVNGETLKTGGDNKTLLHLGSSAPGKEKSETDKETSLVKQTLAKLQQQEQREEAQWTPTKLSSKNVSGQTDKCREETFKQESQPPEKNSGHSTSKGDRVAQSESKRRKAEEILKSQTPKGGDKKESSKSLVRQGSFTIEKPSPNIPIELIPHINKQTSSTPSSLALTSASRIRERSESLDPDSSMDTTLILKDTEAVMAFLEAKLREDNKTDEGPDTPSYNRDNSISPESDVDTASTISLVTGETERKSTQKRKSFTSLYKDRCSTGSPSKDVTKSSSSGAREKMEKKTKSRSTDVGSRADGRKFVQSSGRIRQPSVDLTDDDQTSSVPHSAISDIMSSDQETYSCKPHGRTPLTSADEHVHSKLEGSKVTKSKTSPVVSGSSSKSTTLPRPRPTRTSLLRRARLGEASDSELADADKASVASEVSTTSSTSKPPTGRRNISRIDLLAQPRRTRLGSLSARSDSEATISRSSASSRTAEAIIRSGARLVPSDKFSPRIRANSISRLSDSKVKSMTSAHGSASALKTTRLQSAGSAMPTSSSFKHRIKEQEDYIRDWTAHREEIARISQDLALIAREINDVAGEIDSVTSSGTAPSTTVSTAATTPGSAIDTREEVGDLHGEMHKLVDRVFDESLNFRKIPPLVHSKTPEGNNGRSGDPRPQAAEPPDHLTITRRRTWSRDEVMGDNLLLSSVFQFSKKIRQSIDKTAGKIRILFKDKDRNWDDIESKLRAESEVPIVKTSSMEISSILQELKRVEKQLQAINAMIDPDGTLEALNNMGFPSAMLPSPPKQKSSPVNNHHSPGQTPTLGQPEARALHPAAVSAAAEFENAESEADFSIHFNRFNPDGEEEDVTVQE”, the “soluble on expression in E. coli” value is “soluble”.

As for “MGSDKIHHHHHHMIRAGIIGATGYTGLELVRLLKNHPEAKITYLSSRTYAGKKLEEIFPSTLENSILSEFDPEKVSKNCDVLFTALPAGASYDLVRELKGVKIIDLGADFRFDDPGVYREWYGKELSGYENIKRVYGLPELHREEIKNAQVVGNPGCYPTSVILALAPALKHNLVDPETILVDAKSGVSGAGRKEKVDYLFSEVNESLRPYNVAKHRHVPEMEQELGKISGKKVNVVFTPHLVPMTRGILSTIYVKTDKSLEEIHEAYLEFYKNEPFVHVLPMGIYPSTKWCYGSNHVFIGMQMEERTNTLILMSAIDNLVKGASGQAVQNMNIMFGLDETKGLEFTPIYP”, the “soluble on expression in E. coli” value was “soluble”.

“MRNICFVACMLFCLTSAVGKTPGNTRYLSIADSILSNVLNLYQTNDGLLTETYPVNPDQKITYLAGGTQQNGTLKASFLWPYSGMMSGCVALYKATGNKKYKKILEKRILPGMEQYWDNSRLPACYQSYPTKYGQHGRYYDDNIWIALDYCDYYQLTHKPASLEKAVALYQYIYSGWSDEIGGGIFWCEQQKEAKHTCSNAPSTVLGVKLYRLTKDAKYLEKAKETYAWTKKHLCDPTDHLYWDNINLKGKVSKEKYAYNSGQMIQAGVLLYEETGDEQYLRDAQQTAAGTDAFFRTKADKKDPTVKVHKDMAWFNVILFRGLKALYKIDKNPAYVNAMVENALHAWENYRDENGLLGRDWSGHNKEQYKWLLDNACLIEFFAEIAAALEHHHHHH”: the “soluble on expression in E. coli” value is “not soluble”.

For “MGSDKIHHHHHHMTKSKISNPKLPMALQTSTIFSLQAPKDISLNEIDAELNQIWQSYGITGEDGGLPSATRATTFTLVVYEPEETQYLLAALGFYNGPIDGILGPQMAAALREVQKKHKLPETGTATQETLTILREEFAKGQRGGTGGEHAIAGLNSSSPRIADEIALRNPCRIIALFPITGEDEGVKAQVSAYCPIQKQSSSTLICCEYITLSGTAAALERIGGMIPALLIGGLPKFLWWKATPDPNNGLFKRLAAICNNVIVDSCNFNEPESDLLRLEELVEAGVPLADLNWRRLASWQELTAEAYDSPKRRAALREIDRVTIDYEKGNPAQALLFLGWLASRLEWQPVSYQKESGDYDITRIHFISQDQRQVEAELAGVPVADVGDIIGDLIALRLSSTNPQADCGTVICSETGGCMRMETHGGAQSAGLFQQVTSLSEQKAEALLSQQVQRWGRESLFEESLGVTANIFKLAN”, the “soluble on expression in E. coli” value was “not soluble”.

With “MFSSSALSYINGFCFSTAGYSPEFCHAVRFVLIEEGALNQDGTPKPNLGYVNDPKDKGGETKGGISKRAFPNIDIAALTLDGIVALYHRYFWKPAYCQDWPASVALYTFDAAVQHGVTNALLMLQEIAGTKADGKVGPATRNAVNSADKEYLCARYGLRRARFYARIIKKDTSQTRFIEGWHNRLVNLTNAAWELQ”, the “soluble on expression in E. coli” value was “soluble”.

On to “RLQPIIVPGWQGSGPGHWQTHWSRTLPHAVRLQQRDWHQPQRAEWVAALAAAVDAAPTPVLLVAHSLGCLVSAALPIALRAKVAGALLVAPADVERPGAPAAIAAFGPVPRQSLPYQSVVIASDDDPYCRLERARQFAQDWGSRLVVLQGAGHINADSQLGAWPQGLKQLAALRRRACW”, for which the “soluble on expression in E. coli” value is “not soluble”.

As to “MGSDKIHHHHHHMLLEKLNWRYAAKKMDPAKVVSEDKVERIVEAARLAPTSSGLQPFEIIVVTNAEVREKIKAIGWNQSPITDGSHLLVFAAWDNYTAERINHMFDLVNEVRGFRNEGWENYRQMLLSAYPQRDPETNFEHAARQAYIAFGLALAQAAFEGVDATPMEGFDPKALDEILGLRERGLRSVTIAPLGYRQVEGDWLVNLQKVRRPRDQFVTEVK”, the “soluble on expression in E. coli” value is on record as “not soluble”.

Turning to “MKKTLPKTEAPSSVGNGSDSPIEFDAIIRQVPDMDAAYVEIPFDVKTVYGKGRVRVNATFDGYPYTGYIVRMGLPCHILGLRQDIRRAIGKQPGDSVYVTLLPL”, the “soluble on expression in E. coli” value is listed as “soluble”.
